Where a chain is given by its changes, count along the chain named.
B1: 1.1.32-1 (antibody, human IgG1, kappa)
heavy: QVQLLQSGAAVTKPGASVRVSCEASGYNIRDYFIHWWRQAPGQGLQWVGWINPKTGQPNNPRQFQGRVSLTRHASWDFDTFSFYMDLKALRSDDTAVYFCARQRSDYWDFDVWGSGTQVTVSSASTKGPSVFPLAPSSKSTSGGTAALGCLVKDYFPEPVTVSWNSGALTSGVHTFPAVLQSSGLYSLSSVVTVPSSSLGTQTYICNVNHKPSNTKVDKKVEPKSCDKTHTCPPCPAPELLAGPDVFLFPPKPKDTLMISRTPEVTCVVVDVSHEDPEVKFNWYVDGVEVHNAKTKPREEQYNSTYRVVSVLTVLHQDWLNGKEYKCKVSNKALPLPEEKTISKAKGQPREPQVYTLPPSREEMTKNQVSLTCLVKGFYPSDIAVEWESNGQPENNYKTTPPVLDSDGSFFLYSKLTVDKSRWQQGNVFSCSVLHEALHSHYTQKSLSLSPGK
light: DIQMTQSPSSLSASVGDTVTITCQANGYLNWYQQRRGKAPKLLIYDGSKLERGVPSRFSGRRWGQEYTLTISSLQPEDIATYFCQVYEFVTPGTRLDLKRTVAAPSVFIFPPSDEQLKSGTASVVCLLNNFYPREAKVQWKVDNALQSGNSQESVTEQDSKDSTYSLSSTLTLSKADYEKHKVYACEVTHQGLSSPVTKSFNRGEC
B2: 1.3.1-1 (antibody, human IgG1, kappa)
heavy: B1 heavy with Q3S
light: B1 light with T68N, S72N, S73N, T91V
B3: 1.9.1-1 (antibody, human IgG1, kappa)
heavy: B1 heavy with L5V, A10E, T12K, E23K
light: B1 light with T68N, S72N, S73N, T91V
B4: 1.5.1-1 (antibody, human IgG1, kappa)
heavy: B1 heavy with L5V, E23K
light: B1 light with T68N, S72N, S73N, T91V
B5: 1.7.1-1 (antibody, human IgG1, kappa)
heavy: B1 heavy with A10E, T12K
light: B1 light with T68N, S72N, S73N, T91V
B6: 1.12.15-1 (antibody, human IgG1, kappa)
heavy: B1 heavy with W37V
light: B1 light with T68N, S72N, S73N, V90F, T91V
B7: 1.1.33-1 (antibody, human IgG1, kappa)
heavy: B1 heavy
light: B1 light with K49N, T91V, R95N, L98I
B8: 1.8.1-1 (antibody, human IgG1, kappa)
heavy: B1 heavy with L5V, A10E
light: B1 light with T68N, S72N, S73N, T91V
B9: 1.6.1-1 (antibody, human IgG1, kappa)
heavy: B1 heavy with A10E
light: B1 light with T68N, S72N, S73N, T91V
B10: 1.11.1-1 (antibody, human IgG1, kappa)
heavy: B1 heavy with I34M, F83A
light: B1 light with T68N, S72N, S73N, T91V
B11: 1.1.36-1 (antibody, human IgG1, kappa)
heavy: B1 heavy
light: B1 light with T18R, R35K, R36P, K49N, R52T, R61S, R95N, L98I
B12: 1.1.34-1 (antibody, human IgG1, kappa)
heavy: B1 heavy
light: B1 light with K49N, L98I
B13: 1.10.1-1 (antibody, human IgG1, kappa)
heavy: B1 heavy with I34M
light: B1 light with T68N, S72N, S73N, T91V
B14: 1.2.1-1 (antibody, human IgG1, kappa)
heavy: B1 heavy with A10E, T12K, Q118M
light: B1 light with T68N, S72N, S73N, T91V
B15: 1.1.35-1 (antibody, human IgG1, kappa, V domains shown)
VH: QVQLLQSGAAVTKPGASVRVSCEASGYNIRDYFIHWWRQAPGQGLQWVGWINPKTGQPNNPRQFQGRVSLTRHASWDFDTFSFYMDLKALRSDDTAVYFCARQRSDYWDFDVWGSGTQVTVSS
VL: DIQMTQSPSSLSASVGDRVTITCQANGYLNWYQQKPGKAPKLLIYDGSNLETGVPSRFSGSRWGQEYTLTISSLQPEDIATYFCQVYEFVGPGTNLDIKR
B16: 1.4.1-1 (antibody, human IgG1, kappa)
heavy: B1 heavy with L5V
light: B1 light with T68N, S72N, S73N, T91V

Experiments:
[1] = target: BSA (UniProt P02769 25-607); assay: single-point ELISA, BSA control
[2] = target: gp120 Bal (HIV (Bal)); assay: single-point ELISA at EC50 conc. of A-1
[3] = target: gp120 SHIV SF162 P3 (SHIV SF162 P3); assay: single-point ELISA at EC50 conc. of A-1
[4] = target: gp120 CAAN (HIV (CAAN)); assay: single-point ELISA at EC50 conc. of A-1

| Binder | ELISA A450 [1] [A450] | ELISA A450 [2] [A450] | ELISA A450 [3] [A450] | ELISA A450 [4] [A450] |
| --- | --- | --- | --- | --- |
| B1 | 0.06 | 0.93 | 0.89 | 1.04 |
| B2 | 0.06 | 0.97 | 1.13 | 0.94 |
| B3 | 0.06 | 1.08 | 1.23 | 0.98 |
| B4 | 0.06 | 0.92 | 1.15 | 1.07 |
| B5 | 0.06 | 0.98 | 1.08 | 1.04 |
| B6 | 0.06 | 0.69 | 0.53 | 0.63 |
| B7 | 0.07 | 0.87 | 0.84 | 0.94 |
| B8 | 0.06 | 0.86 | 0.94 | 0.9 |
| B9 | 0.06 | 0.95 | 1.1 | 0.9 |
| B10 | 0.09 | 0.93 | 0.57 | 0.75 |
| B11 | 0.06 | 0.93 | 0.72 | 0.88 |
| B12 | 0.06 | 0.9 | 0.83 | 0.96 |
| B13 | 0.06 | 0.95 | 1.03 | 0.94 |
| B14 | 0.07 | 0.93 | 1.02 | 1.01 |
| B15 | 0.08 | 0.96 | 0.72 | 0.75 |
| B16 | 0.06 | 1.04 | 1.19 | 0.96 |
